In patent US20140303084A1 (Biogen, published 2014):
Primed or numbered codes have the meaning given here. Side chains are listed from the residue outwards. Ends that are not written are not given here. * marks the point of attachment. Biotin = O=C1N[C@H]2[C@H](CS[C@H]2CCCCC(=O)*)N1; PEG2′ = PEG2 spacer unit

What was measured:
human Factor IXa [1] = biological target: T1, human Factor IXa (human, UniProt P00740 47-191; P00740 227-461); test: cell-based or functional assay
human Factor VIIa = biological target: T2, human Factor VIIa (human, UniProt P08709 61-466); test: BLI (ForteBio Octet 384), peptide on streptavidin probes, soluble hFVIIa
T2 construct: Bought protein; also called hFVIIa; FVIIa
T2 sequence (looked up): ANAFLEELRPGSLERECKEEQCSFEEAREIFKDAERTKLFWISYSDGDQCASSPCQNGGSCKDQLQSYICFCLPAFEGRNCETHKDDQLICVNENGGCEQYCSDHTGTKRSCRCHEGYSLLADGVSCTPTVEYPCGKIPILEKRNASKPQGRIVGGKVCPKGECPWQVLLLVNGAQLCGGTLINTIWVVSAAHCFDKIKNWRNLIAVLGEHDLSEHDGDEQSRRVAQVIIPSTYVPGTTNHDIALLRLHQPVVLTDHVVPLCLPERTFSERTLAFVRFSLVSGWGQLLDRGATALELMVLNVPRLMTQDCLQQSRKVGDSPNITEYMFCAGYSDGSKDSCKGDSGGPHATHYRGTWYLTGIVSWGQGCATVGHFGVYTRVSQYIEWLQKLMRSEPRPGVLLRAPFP
Description: (§1) Briefly, a layer of molecules attached to the tip of an optical fiber creates an interference pattern upon incident white light. The combination of the optical fiber and biocompatible surface creates the physical conditions needed for BLI, allowing the detection of changes in mass accumulation on the tip of the probe. This is measured by alterations in the spectral shift (nm). These changes are recorded as a binding profile, a continuous, real-time monitoring of the association and dissociation of interacting molecules.
(§2) Control SA probes were loaded with 4M guanidinium chloride in the absence of biotinylated peptide for reference subtraction. After loading, probes were incubated in HBS-P for 300 sec to establish a new baseline. […] This is described as the dissociation phase. The equilibrium KD was derived from the non-linear regression analysis of the subtracted data (Reaction probe minus Reference probe) using a 1:1 binding model with ForteBio software (Version 7.0).

human Factor IXa [2] = biological target: T1, human Factor IXa; test: BLI (ForteBio Octet 384), biotinylated peptide on streptavidin probes, soluble hFIXa 0-2000 nM, steady state, 1:1 model
Description: as §1, §2

Binder | EC50 [µM], FXa generation assay with hFIXa (human Factor IXa [1]) [µM] | Kd (human Factor VIIa) [nM] | Kd (human Factor IXa [2]) [nM]
RRAPGKLQCLASYCWLFWTGIA-NH2 (cysteine pairing not given here) [compound 25] | < 0.5 | 250 | 
RRAPGKLTCLASYCWLFK([PEG2′-Biotin])TGIA-NH2 (not fully specified (bridges); printed as RRAPGKLTCLASYCWLFK(PEG2-Biotin)TGIA; cysteine pairing not given here, also called compound 4 biotinylated at K18) [compound 19] | < 0.5 |  | 120
